From patent US20110229556A1, “LIPID-COATED POLYMER PARTICLES FOR IMMUNE STIMULATION” (Massachusetts Institute of Technology, priority 2010, published 2011)
Entries after “also recorded” stand apart in the source; their conditions may differ.

What was measured:
[1] = tested on: OVA-specific serum IgG; experiment: Serum total anti-OVA IgG ELISA after s.c. immunization; type: in vivo, BALB/c or C57B1/6 mice
Method: Antibody titer measurements. Total IgG titers from sera were measured using an ELISA by adsorbing OVA to flat-bottom transparent 96-well plates at room temperature overnight, blocking overnight with bovine serum albumin, adding serially-diluted serum (starting from a minimal dilution of 200×) for 2 hr, and then detecting bound OVA-specific IgG antibody using HRP-labeled anti-mouse IgG (Bio-Rad). Plates were washed between each step using 0.05% Tween-20 in PBS. HRP developed with tetramethylbenzidine was measured using a Molecular Devices SpectraMax Microplate Reader. Monoclonal mouse anti-OVA IgG1 (clone OVA-14, Sigma-Aldrich, St. Louis, Mo.) was included as a standard reference in each assay. Endpoint titers were defined as the highest dilution at which immunized serum ELISA signal exceeded the average+2 standard deviations of pre-immune sera analyzed in parallel. To interpret our titer values in more physiological terms, we used OVA-14 as a standard to determine the concentration of OVA-specific IgG as equivalents of this monoclonal antibody.

[2] = tested on: naïve OT-I (CD8+) T-cells; experiment: Priming of naïve OT-I T-cells by particle-pulsed splenic DCs (CFSE dilution); type: cell-based, mice; conditions: DCs pulsed with 10,000-fold higher doses of soluble OVA than the particle dose, with or without MPLA; not shown
Method: Responses of naïve CD4^+ or CD8^+ T-cells transgenically expressing T cell receptors specific for OVA-derived peptides were assessed by in vitro co-culture of OT-II or OT-I primary T-cells with particle-pulsed DCs. Primary dendritic cells were isolated from spleens of C57B1/6 mice by digesting spleens with collagenase and isolating DCs using a CD11c^+ magnetic bead isolation kit (Miltenyi Biotec). In parallel, naïve CD4^+ T-cells or CD8+ T-cells were isolated from OT-II or OT-I TCR-transgenic mice, respectively (Jackson Laboratories), and labeled with CFSE to trace cell division following the manufacturer's instructions. OVA-loaded particles with post-inserted MPLA or soluble OVA/MPLA were added to splenic DCs (12,500 cells/well) at titrated cell:antigen ratios (starting from 40:1 particles:DC, corresponding to 6.2 μg particles), and incubated for 3 hr in a total volume of 150 μL/well at 37° C. and 5% CO2. CFSE-labeled OT-I or OT-II cells (50,000 cells/well) were then added to DCs in a volume of 50 μL complete RPMI media. This total culture volume of 200 μL/well was incubated for 3 days at 37° C. and 5% CO2 to allow proliferation of T-cells, and CFSE dilution was then measured by flow cytometry.

[3] = tested on: OVA-specific IgG; experiment: Avidity of OVA-specific IgG (ELISA with 6M urea wash); type: in vivo, BALB/c mice; conditions: BALB/c, 10 ng OVA, boost day 21, day 28 sera, 6M urea 10 min
Method: The avidity of IgG responses to immunization was measured using an ELISA analysis of serum binding in the presence of urea using a commonly reported procedure from the literature. Serum titer analysis was conducted in duplicate assay plates until serum adsorption was complete. At this point, one plate was incubated in the presence of 6M urea for 10 min followed by washing and detection of bound IgG on both plates as above. Avidity indices were defined as the serum dilution of urea-treated samples where the ELISA absorbance was 0.5 divided by the dilution of untreated samples giving the same absorbance.

CCCCCCCCCCCCCCCCCCCCCCCCCC(=O)N[C@@H](CO[C@H]1O[C@H](CO)[C@H](O)[C@H](O)[C@H]1O)[C@H](O)[C@H](O)CCCCCCCCCCCCCC [αGC solution, α-galactosylceramide, reference compound]
IgG titers 14 days after a single immunization, αGC dose titration ([1]; BALB/c, 2 ng OVA on microparticles with 10 ng, 100 ng, or 1 μg αGC (on particles or in solution 10 min before at same site)): only a fraction of mice had detectable titers; also recorded: equally effective

B1: ovalbumin (protein, UniProt P01012 2-386, looked up)
Ovalbumin: GSIGAASMEFCFDVFKELKVHHANENIFYCPIAIMSALAMVYLGAKDSTRTQINKVVRFDKLPGFGDSIEAQCGTSVNVHSSLRDILNQITKPNDVYSFSLASRLYAEERYPILPEYLQCVKELYRGGLEPINFQTAADQARELINSWVESQTNGIIRNVLQPSSVDSQTAMVLVNAIVFKGLWEKAFKDEDTQAMPFRVTEQESKPVQMMYQIGLFRVASMASEKMKILELPFASGTMSMLVLLPDEVSGLEQLESIINFEKLTEWTSSNVMEERKIKVYLPRMKMEEKYNLTSVLMAMGITDVFSSSANLSGISSAESLKISQAVHAAHAEINEAGREVVGSAEAGVDAASVSEEFRADHPFLFCIKHIATNAVLFFGRCVSP
notes: model protein antigen ovalbumin dissolved in saline
anti-OVA IgG titers ([1]; BALB/c, 10 ng OVA s.c. prime, boost with same dose 3 weeks later, 1.3 μg MPLA and 600 ng αGC where used): only a subset of mice responded | time serum titers were maintained ([1]; BALB/c, 10 ng OVA s.c., boost 3 weeks later): not sustained in a majority of the mice | OT-I proliferation [2]: minimal OT-I proliferation | avidity: IgG binding following urea washes [3]: no binding

B2: SAT(PEG)4-modified OVA: ovalbumin modified with the heterobifunctional cross-linker SAT(PEG)4 for particle coupling (protein, UniProt P01012 2-386, looked up)
Ovalbumin: B1 Ovalbumin
modifications: SAT(PEG)4 cross-linker modified
notes: ovalbumin modified with the heterobifunctional cross-linker SAT(PEG)4 for particle coupling
influence of SAT(PEG)4 modification on the protein's immunogenicity ([1]; data not shown): no significant influence
